Experimental data as given in patent US20130251728A1 (Regeneron, published 2013).
Where a chain is given by its changes, count along the chain named.

T1: monkey (Macaca fascicularis) GCGR (full-length, on HEK293 reporter cells) (monkey (Macaca fascicularis), UniProt P47871 26-477 (human entry))
T1 chain: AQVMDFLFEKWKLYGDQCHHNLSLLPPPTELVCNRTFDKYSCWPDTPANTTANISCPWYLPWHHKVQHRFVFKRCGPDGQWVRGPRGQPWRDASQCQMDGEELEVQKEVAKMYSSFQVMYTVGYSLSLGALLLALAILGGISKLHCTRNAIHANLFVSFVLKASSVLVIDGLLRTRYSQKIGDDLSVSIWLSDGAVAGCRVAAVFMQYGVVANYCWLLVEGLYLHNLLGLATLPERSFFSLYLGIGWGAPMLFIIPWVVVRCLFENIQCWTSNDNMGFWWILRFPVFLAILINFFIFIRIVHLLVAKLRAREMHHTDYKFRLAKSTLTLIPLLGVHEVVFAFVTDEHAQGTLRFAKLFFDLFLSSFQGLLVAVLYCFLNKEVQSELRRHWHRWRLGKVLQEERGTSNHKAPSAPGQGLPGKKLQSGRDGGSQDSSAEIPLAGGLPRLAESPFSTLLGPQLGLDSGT

T2: hGCGR-mmh (human)
T2 construct: also called REGN547; monovalent hGCGR
T2 chain: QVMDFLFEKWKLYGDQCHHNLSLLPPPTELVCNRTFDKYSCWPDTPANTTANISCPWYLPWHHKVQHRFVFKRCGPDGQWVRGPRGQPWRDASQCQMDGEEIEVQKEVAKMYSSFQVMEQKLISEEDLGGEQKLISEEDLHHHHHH

B1: H4H1331P (antibody, V domains shown)
VH: QVQLVESGGGVVQPGRSLRLSCAASGFTFSNFGMHWVRQAPGKGLEWVAVIWFDEIDKYYADSVKGRFTISRDNSKNTLYPQMNSLRAEDTAVYYCAREDYDILTGYYYAMDVWGQGTTVTVS
VL: DIQMTQSPSSLSASVGDRVTITCRASQGIKNDLGWYQQKPGKAPKRLIYAASRLQSGVPSRFSGSGSGTEFTLTISSLQPEDFGTYYCLQHNSHPTFGQGTKVEIK
notes: Fully human anti-GCGR antibody; the controls are called isotype-matched hIgG4
B2: H4H1339P (antibody, V domains shown)
VH: EVQLVESGGGMVQPGGSLRLSCAASGFTSSNYDMHWVRQATGKGLEWVSSIDTAGDTYYPDSVKGRFIISRENAKNSLYLQMNSLRAGDTAVYYCTREPRNYEILTGHYHYHGMDIWGQGTTVTVS
VL: AIQMTQSPSSLSASVGDRVTITCRASQAIRNDLGWYQQKPGKAPKLLIYTAFSLQSGVPSRFSGSKSGTDFTLTISSLQPEDFATYYCLQDYTNPRTFGQGTKVEIK
notes: as for B1
B3: H4H1345N (antibody, V domains shown)
VH: QVQLVQSGADVKKPGASVKVSCKVSGHILTDLSMHWVRQPPGKGLEWMAGFDPEEGKIIYAQKFQGRVTMTEDTSTDTAYMELSSLRSGDTAVYYCATSDILTGYYRDYYGLDVWGQGTTLTVSS
VL: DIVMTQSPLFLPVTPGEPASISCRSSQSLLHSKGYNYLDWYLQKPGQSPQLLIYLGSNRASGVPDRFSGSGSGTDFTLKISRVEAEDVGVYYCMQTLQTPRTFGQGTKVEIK
notes: Anti-GCGR antibody from hybridoma; the controls are called isotype-matched hIgG4
B4: H4H1617N (antibody, V domains shown)
VH: B3 VH with P40A, A49G, K57E
VL: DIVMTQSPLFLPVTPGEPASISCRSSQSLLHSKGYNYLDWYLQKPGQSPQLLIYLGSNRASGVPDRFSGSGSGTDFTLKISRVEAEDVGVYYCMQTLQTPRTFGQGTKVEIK
notes: as for B3
B5: H4H1327P (antibody, V domains shown)
VH: EVQLVESGGGLVQPGGSLRLSCAASGFTFSNYLMNWVRQAPGKGLEWLANIQEDGIEKYYVDSVKGRFTISRDNAKNSLYLQMNSLRAEDTAVYYCAREPSHYDILTGYDYYYGMDVWGQGTTVTVS
VL: DIQMTQSPSSLSASVGDRVTITCRASQGIRNDLGWYQQKPGKAPKRLIYAASSLQSGVPSRFSGSGSGTEFILTVSSLQPEDFATYYCLQYNSNPFTFGPGTKVDIK
notes: also called anti-GCGR (hIgG4) antibody designated H4H1327P
B6: H4H1328P (antibody, V domains shown)
VH: EVQLVESGGALVQPGGSLRLSCTASGFTFSNYDMHWVRQTTGKGLEWISAIDTAGDTYYPGSVKGRFTVSRENAKNSFYLQMNSLRAGDTAVYYCAREGKYYDILTGDYHYYGMDVWGQGTTVTVS
VL: B5 VL with A51T, I72T, V75I, Y91H, N94Y, F96L, P100G, V104L, D105E
notes: as for B1
B7: H4H1765N (antibody, V domains shown)
VH: EEQLVESGGDLVQPGGSLRLSCAASGFTLSSYEMNWVRQAPGKGLEWVSYISRGGSLIHYTDSVKGRFTISRDNAKNSLYLQMNSLRAEDTAVYYCVRDPAARYHYYYHGMDVWGQGTTVTVSS
VL: DIVMTQSPLSLPVTPGEPASISCRSSQSLLHNNGYNYLDWYLQKPGQSPQLLIYLGSSRASGVPDRFSGSGSGTDFILKISRVEAEDVGVYYCMQALQTPWTFGRGTKVEIK
notes: as for B3

Target: human GCGR (full-length, on HEK293 reporter cells) (human, UniProt P47871 27-477)
Experiment: cell-based or functional assay

IC50, inhibition of 100 pM GCG-stimulated luciferase activity, hGCGR reporter cells [nM]	Binder
0.66	B1
0.46	B2
2.22	B3
1.25	B4
0.39	B5
0.24	B6
12.8	B7

Target: T1, monkey (Macaca fascicularis) GCGR …
Experiment: cell-based or functional assay

IC50, inhibition of 100 pM GCG-stimulated luciferase activity, mfGCGR reporter cells [nM]	Binder
8.29	B1
2.85	B2
3.86	B3
4.24	B4
2.56	B5
2.73	B6
75.2	B7

Target: mouse GCGR (full-length, on HEK293 reporter cells) (mouse, UniProt Q61606 27-485)
Experiment: cell-based or functional assay

Sequence of mouse GCGR (full-length, on HEK293 reporter cells) (Q61606 27-485 limits assumed): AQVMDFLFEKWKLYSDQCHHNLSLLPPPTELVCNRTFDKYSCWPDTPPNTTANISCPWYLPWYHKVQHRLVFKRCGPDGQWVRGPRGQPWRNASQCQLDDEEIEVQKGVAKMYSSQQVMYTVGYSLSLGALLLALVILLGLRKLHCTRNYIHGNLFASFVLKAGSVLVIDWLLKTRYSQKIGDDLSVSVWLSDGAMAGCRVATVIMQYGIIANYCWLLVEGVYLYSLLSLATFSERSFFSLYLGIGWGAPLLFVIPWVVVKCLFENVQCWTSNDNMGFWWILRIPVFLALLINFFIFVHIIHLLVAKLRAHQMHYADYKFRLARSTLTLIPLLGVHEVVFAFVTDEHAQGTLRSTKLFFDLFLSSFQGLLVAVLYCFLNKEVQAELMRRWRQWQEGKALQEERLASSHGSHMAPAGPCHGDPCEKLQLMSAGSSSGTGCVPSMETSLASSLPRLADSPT

IC50, inhibition of 100 pM GCG-stimulated luciferase activity, mGCGR reporter cells [nM]	Binder
1.62	B1
1.6	B2
1.04	B5
1.26	B6

Target: rat GCGR (full-length, on transiently transfected HEK293 reporter cells) (rat, UniProt P30082 27-485)
Experiment: cell-based or functional assay

Sequence of rat GCGR (full-length, on transiently transfected HEK293 reporter cells) (P30082 27-485 limits assumed): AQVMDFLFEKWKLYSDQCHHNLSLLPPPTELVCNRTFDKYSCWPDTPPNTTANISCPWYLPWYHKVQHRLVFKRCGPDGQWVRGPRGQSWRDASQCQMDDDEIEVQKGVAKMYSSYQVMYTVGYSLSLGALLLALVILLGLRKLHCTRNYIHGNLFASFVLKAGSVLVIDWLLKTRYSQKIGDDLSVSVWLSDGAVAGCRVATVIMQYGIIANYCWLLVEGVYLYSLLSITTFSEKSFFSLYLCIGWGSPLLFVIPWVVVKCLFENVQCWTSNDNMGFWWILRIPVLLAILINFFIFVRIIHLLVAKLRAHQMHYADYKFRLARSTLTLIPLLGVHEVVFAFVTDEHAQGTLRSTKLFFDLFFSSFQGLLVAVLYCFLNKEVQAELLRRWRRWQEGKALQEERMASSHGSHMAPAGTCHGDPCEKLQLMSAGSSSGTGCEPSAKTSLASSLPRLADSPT

IC50, inhibition of 100 pM GCG-stimulated luciferase activity, rat GCGR reporter cells [nM]	Binder
3.87	B1
0.97	B2
8.07	B3
3.66	B4
0.88	B5
0.93	B6

Target: T2, hGCGR-mmh
Experiment: SPR Biacore T100, 25C, mAb captured, antigen flowed
Experimental: (§1) Measurements were conducted on a T100 Biacore instrument. Antibodies were captured onto the Biacore sensor chip surface via a covalently-linked anti-human kappa antibody capture surface, and the soluble GCGR proteins were applied to the surface either in a monovalent (hGCGR expressed with a myc-myc-hexa-histidine C-terminal tag) or bivalent (hGCGR and MfGCGR expressed with an N-terminal Fc fusion) format.
(§2) Binding dissociation equilibrium constants and dissociative half-lives were calculated from the kinetic rate constants as: KD=kd/kₐ; t_{1/2}=(In2/kd).

Kd [nM]	T½ [h]	koff [s⁻¹]	kon [M⁻¹ s⁻¹]	Binder
0.17	1.73	0.000111	657000	B1
0.825	0.367	0.000532	645000	B2
0.431	0.567	0.000344	798000	B3
0.187	0.967	0.000199	1.07e+06	B4
0.369	0.55	0.000352	952000	B5
2.06	0.0833	0.00212	1.03e+06	B6
0.093	6.32	3.05e-05	326000	B7

Target: T3, hGCGR-hFc (human)
T3 construct: also called REGN316
Experiment: as above
Experimental: as §1, §2

Kd [nM]	T½ [h]	koff [s⁻¹]	kon [M⁻¹ s⁻¹]	Binder
0.0202	12.5	1.54e-05	760000	B1
0.0618	3.1	6.2e-05	1e+06	B2
0.0724	3.37	5.72e-05	790000	B3
0.0389	6.05	3.18e-05	818000	B4
0.0338	4.7	4.1e-05	1.21e+06	B5
0.201	0.85	0.000226	1.13e+06	B6
0.0122	38.9	4.95e-06	410000	B7

Target: T4, mfGCGR-hFc (cynomolgus monkey (Macaca fascicularis))
T4 construct: also called mfGCGR-N-terminal hFc
Experiment: as above
Experimental: as §1, §2

T4 sequence (chain, as listed by the source limits assumed): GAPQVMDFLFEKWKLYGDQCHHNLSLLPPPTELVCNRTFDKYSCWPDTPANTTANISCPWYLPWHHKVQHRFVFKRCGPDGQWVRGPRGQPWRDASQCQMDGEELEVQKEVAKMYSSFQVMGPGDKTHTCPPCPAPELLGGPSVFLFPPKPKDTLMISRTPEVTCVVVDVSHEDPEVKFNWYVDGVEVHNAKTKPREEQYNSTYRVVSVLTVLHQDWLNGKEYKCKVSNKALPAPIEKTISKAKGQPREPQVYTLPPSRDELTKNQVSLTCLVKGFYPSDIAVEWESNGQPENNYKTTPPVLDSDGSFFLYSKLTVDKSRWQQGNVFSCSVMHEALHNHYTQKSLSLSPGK

Kd [nM]	T½ [h]	koff [s⁻¹]	kon [M⁻¹ s⁻¹]	Binder
0.0069	23.7	8.12e-06	1.17e+06	B1
0.0182	8.43	2.28e-05	1.26e+06	B2
0.0254	7.95	2.42e-05	953000	B3
0.011	13.9	1.38e-05	1.26e+06	B4
0.00902	13.4	1.44e-05	1.6e+06	B5
0.0529	2.28	8.46e-05	1.6e+06	B6
≤ 0.00156	192	≤ 1e-06	643000	B7

Target: T2, hGCGR-mmh
Experiment: SPR Biacore T100, 37C, mAb captured, antigen flowed
Experimental: as §1, §2

Kd [nM]	T½ [h]	koff [s⁻¹]	kon [M⁻¹ s⁻¹]	Binder
0.533	0.367	0.000519	973000	B1
4.91	0.05	0.0043	876000	B2
2.12	0.1	0.00197	928000	B3
0.943	0.167	0.00113	1.2e+06	B4
1.35	0.1	0.002	1.48e+06	B5
6.67	0.0167	0.0108	1.61e+06	B6
0.252	1.73	0.000111	441000	B7

Target: T3, hGCGR-hFc
Experiment: as above
Experimental: as §1, §2

Kd [nM]	T½ [h]	koff [s⁻¹]	kon [M⁻¹ s⁻¹]	Binder
0.0779	2.12	9.12e-05	1.17e+06	B1
0.318	0.517	0.000371	1.17e+06	B2
0.324	0.617	0.000309	952000	B3
0.181	0.9	0.000214	1.18e+06	B4
0.157	0.833	0.000232	1.48e+06	B5
0.124	1	0.000192	1.55e+06	B6
0.0537	5.4	3.57e-05	664000	B7

Target: T4, mfGCGR-hFc
Experiment: as above
Experimental: as §1, §2

Kd [nM]	T½ [h]	koff [s⁻¹]	kon [M⁻¹ s⁻¹]	Binder
0.0257	4.68	4.12e-05	1.6e+06	B1
0.0631	1.8	0.000107	1.69e+06	B2
0.101	1.52	0.000128	1.27e+06	B3
0.0586	2.22	8.72e-05	1.49e+06	B4
0.0357	2.42	7.94e-05	2.22e+06	B5
0.0353	2.68	7.17e-05	2.03e+06	B6
0.0164	13	1.48e-05	904000	B7
